Where no end group is shown, it is not given here. [ ]: non-standard residue; d: D form. Hyp = O=C(O)[C@@H]1C[C@@H](O)CN1
T1: Drosophila von Hippel-Lindau protein dVHL (Drosophila melanogaster, UniProt Q9V3C1 1-178)
T1 construct: Drosophila melanogaster VHL (dVHL), ORF re-engineered to E. coli codon usage, cloned in pET14b (NdeI/XhoI); migrated as a 19 kDa protein; also called Drosophila VHL
T1 sequence (looked up): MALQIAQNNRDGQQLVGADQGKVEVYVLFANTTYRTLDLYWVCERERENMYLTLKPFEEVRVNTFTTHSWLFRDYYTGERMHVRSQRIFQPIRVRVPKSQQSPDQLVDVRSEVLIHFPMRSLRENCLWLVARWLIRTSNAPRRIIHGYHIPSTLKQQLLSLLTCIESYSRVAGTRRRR


Experiments:
[1] = target: T1, Drosophila von Hippel-Lindau protein …; assay: ELISA; ELISA-based binding assay: pVHL or dVHL (10 µg/ml, 500 nM, in 10 mM Tris-HCl pH 8, 200 mM NaCl, 200 mM GnHCl) coated on the plate overnight at 4°C, blocked with 5% BSA; TAMRA-labelled peptide at increasing concentrations, 1 h at 25°C; fluorescence at 580 nm, after subtraction of the BSA control; details: both partners purified
[2] = target: T2, human von Hippel-Lindau tumor suppressor protein pVHL (19 kDa) (human, UniProt P40337-3 1-160); assay: as above; details: both partners purified
T2 construct: numbers count on: the 30 kDa isoform (Y98, W117 and so on)
T2 sequence (P40337 54-213): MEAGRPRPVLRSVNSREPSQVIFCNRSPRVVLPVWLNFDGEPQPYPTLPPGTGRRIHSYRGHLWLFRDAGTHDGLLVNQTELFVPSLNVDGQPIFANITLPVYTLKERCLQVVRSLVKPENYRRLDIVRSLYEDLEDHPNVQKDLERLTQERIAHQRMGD

Row | binding result [1] | fold stronger binding than to dVHL [2] | Binder
1 | binds | ~1.5 fold | SFEAFAGRA[Hyp]YIPIDDD (also: TAMRA label, position not given here, Drosophila SIMA (fly homolog of HIF1-α), residues 841-857 of its ODD; The peptide has two prolines (P850 and P853); by its name the hydroxylated one is P850; also called SIMA-derived peptide; source: synthetic peptide (Hy Laboratory Ltd, Israel)) [Hyp850-ODD-SIMA peptide (SIMA residues 841-857, hydroxyproline 850, TAMRA-labelled)]
2 | binds | ~1.5 fold | DALTLLA[Hyp]AAGDTIISLDF (also: TAMRA label, position not given here, human HIF1-α, residues 395-413 of the oxygen dependent degradation domain; also called HIF1-α P402; HIF1-α-derived peptide; source: synthetic peptide (Hy Laboratory Ltd, Israel)) [Hyp402-ODD-HIF peptide (HIF1-α residues 395-413, hydroxyproline 402, TAMRA-labelled)]

Source: paper PMC4195687, “Computational and Experimental Characterization of dVHL Establish a Drosophila Model of VHL Syndrome” (PLoS ONE, 2014)
